Results from article PMC6314204 (Biochemistry, 2018).

Experiments:
[1] = test system: CC(=O)OCC1=C(C(=O)O)N2C(=O)[C@@H](NC(=O)Cc3cccs3)[C@H]2SC1; experiment: purified protein; conditions: 50 mM HEPES, pH 7.5, 150 mM NaCl, 10 μM ZnCl2, 37 °C
[2] = test system: C[C@@H](O)[C@H]1C(=O)N2C(C(=O)O)=C(SCCN=CN)C[C@H]12; experiment: purified protein; conditions: 50 mM HEPES, pH 7.5, 150 mM NaCl, 10 μM ZnCl2, 37 °C
[3] = test system: C[C@@H](O)[C@H]1C(=O)N2C(C(=O)O)=C(S[C@@H]3CN[C@H](C(=O)N(C)C)C3)[C@H](C)[C@H]12; experiment: purified protein; conditions: 50 mM HEPES, pH 7.5, 150 mM NaCl, 10 μM ZnCl2, 37 °C
[4] = biological target: SPS-1 (Sediminispirochaeta smaragdinae, UniProt E1R245); conditions: read-out: SPS-1 / Km; 50 mM HEPES, pH 7.5, 150 mM NaCl, 10 μM ZnCl2, 37 °C
SPS-1, sequence (E1R245 32-276 limits assumed): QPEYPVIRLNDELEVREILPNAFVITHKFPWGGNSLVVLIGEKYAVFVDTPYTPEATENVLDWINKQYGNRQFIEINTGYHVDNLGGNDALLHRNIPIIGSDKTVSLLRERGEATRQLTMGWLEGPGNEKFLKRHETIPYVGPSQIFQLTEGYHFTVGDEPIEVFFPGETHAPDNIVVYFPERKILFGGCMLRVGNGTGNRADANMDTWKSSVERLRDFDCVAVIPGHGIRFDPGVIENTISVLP

Row | Substance | Km [1] [µM] | kcat [1] [s⁻¹] | kcat/Km [1] [M⁻¹ s⁻¹] | Km [2] [µM] | kcat [2] [s⁻¹] | kcat/Km [2] [M⁻¹ s⁻¹] | Km [3] [µM] | kcat [3] [s⁻¹] | kcat/Km [3] [M⁻¹ s⁻¹] | Km [4] [µM]
1 | SPS-1 (Sediminispirochaeta smaragdinae DSM 11293) | 110 ± 20 | 3.1 ± 0.1 | 27000 | 290 ± 50 | 470 ± 60 | 1.63e+06 | 170 ± 30 | 520 ± 50 | 3e+06 | 
2 | chromacef |  |  |  |  |  |  |  |  |  | 120 ± 9
